This is an account of results in PMC3406945, “A smallest 6 kda metalloprotease, mini-matrilysin, in living world: a revolutionary conserved zinc-dependent proteolytic domain- helix-loop-helix catalytic zinc binding domain (ZBD)” (Journal of Biomedical Science, 2012).

This data set concerns the molecule itself. Kind of data set: CM-transferrin zymography; purified and refolded 6 kDa ZBD (heparin and Triton X-100 present) in sample buffer without dithiothreitol at room temperature, run on a 12.5% SDS-PAGE gel with 0.3 mg/ml CM-transferrin embedded; oligomer size read from the active bands.

Values joined by “and” are separate entries in the source; they are usually repeats but may differ in a detail not shown here. Equal entries are not always repeated.

A word on the stoichiometry N: it is a count of units in the complex or per binding partner.

B1: recombinant rat matrilysin zinc-binding domain (ZBD) (domain or fragment, UniProt P50280 212-267, looked up)
chain: LFVATHELGHSLGLGHSSVPSSVMYPTYQGDHSEDFSLTKDDIAGIQKLYGKRNKL
notes: 212-267, said to correspond to human a.a; 188-247; called a 60-residue fragment; Cloned into the Nde1 and BamH1 sites of PET3a; also called 6 kDa ZBD; 6 kDa MMP-7 ZBD
As for B1, the “stoichiometry N” value is 6 and 8 and 5.
